Results published in PMC8557155 (Annals of Nuclear Medicine, 2021).
Entries after “also recorded” stand apart in the source; their conditions may differ.

Assay: Safety and tolerability (TEAEs, NCI CTCAE v4.0, DLT)
Format: in vivo, human (Japanese patients)
Method: Safety was evaluated based on adverse events, laboratory tests, vital signs, physical examination, arterial oxygen saturation (SpO2), 12-lead electrocardiogram (ECG), body weight, and Eastern Cooperative Oncology Group (ECOG) performance status. Toxicity was evaluated according to the NCI CTCAE criteria version 4.0 14). Blood count and liver and kidney biochemistry examinations were performed just prior to the treatment and 5 days, 2, 4, 6, and 8 weeks after the first administration (Course 1). In addition, the examinations were performed the second, third, fourth administration (Courses 2, 3, 4), and as per routine clinical follow-up thereafter.
Course 2 treatment and subsequent courses were initiated for subjects who completed the dose-limiting toxicity (DLT) observation period (up to Day 56 of Course 1) without experiencing DLT and who met the eligibility criteria. […] The study treatment was considered tolerable when the number of subjects who experienced DLT was zero or one per six subjects. The appropriateness of DLT, as assessed by the investigator or sub-investigator, was confirmed by the clinical trial medical expert. All adverse events and serious adverse events, reported spontaneously or non-spontaneously, were collected during the study.

[1] = TEAE by severity, n = 6, CTCAE v4.0, 4 × 7.4 GBq + amino acid solution + octreotide LAR

SMILES: C[C@@H](O)[C@H](NC(=O)[C@@H]1CSSC[C@H](NC(=O)[C@@H](Cc2ccccc2)NC(=O)CN2CCN(CC(=O)O)CCN(CC(=O)O)CCN(CC(=O)O)CC2)C(=O)N[C@@H](Cc2ccc(O)cc2)C(=O)N[C@H](Cc2c[nH]c3ccccc23)C(=O)N[C@@H](CCCCN)C(=O)N[C@@H]([C@@H](C)O)C(=O)N1)C(=O)O [177Lu-DOTATATE, ^177Lu-DOTA^0-Tyr^3-octreotate, metal not drawn]
- Dose-limiting toxicities (DLT) (DLT observation period up to Day 56 of Course 1, n = 6): no dose-limiting toxicities; also recorded: no DLT
- ALT increased, Grade 1 [1]: 1 (16.7) n (%)
- ALT increased, Grade 2 [1]: 0 n (%)
- ALT increased, Grade 3 [1]: 0 n (%)
- ALT increased, Grade 4 [1]: 0 n (%)
- AST increased, Grade 1 [1]: 1 (16.7) n (%)
- AST increased, Grade 2 [1]: 0 n (%)
- AST increased, Grade 3 [1]: 0 n (%)
- AST increased, Grade 4 [1]: 0 n (%)
- Abdominal distension, Grade 1 [1]: 3 (50.0) n (%)
- Abdominal distension, Grade 2 [1]: 0 n (%)
- Abdominal distension, Grade 3 [1]: 0 n (%)
- Abdominal distension, Grade 4 [1]: 0 n (%)
- Abdominal pain, Grade 1 [1]: 1 (16.7) n (%)
- Abdominal pain, Grade 2 [1]: 0 n (%)
- Abdominal pain, Grade 3 [1]: 0 n (%)
- Abdominal pain, Grade 4 [1]: 0 n (%)
- All treatment emergent adverse events (TEAEs), Grade 1 [1]: 0 n (%)
- All treatment emergent adverse events (TEAEs), Grade 2 [1]: 4 (66.7) n (%)
- All treatment emergent adverse events (TEAEs), Grade 3 [1]: 2 (33.3) n (%)
- All treatment emergent adverse events (TEAEs), Grade 4 [1]: 0 n (%)
- Alopecia, Grade 1 [1]: 3 (50.0) n (%)
- Alopecia, Grade 2 [1]: 0 n (%)
- Alopecia, Grade 3 [1]: 0 n (%)
- Alopecia, Grade 4 [1]: 0 n (%)
- Blood and lymphatic system disorders (SOC), Grade 1 [1]: 0 n (%)
- Blood and lymphatic system disorders (SOC), Grade 2 [1]: 1 (16.7) n (%)
- Blood and lymphatic system disorders (SOC), Grade 3 [1]: 2 (33.3) n (%)
- Blood and lymphatic system disorders (SOC), Grade 4 [1]: 0 n (%)
- CPK increased, Grade 1 [1]: 0 n (%)
- CPK increased, Grade 2 [1]: 1 (16.7) n (%)
- CPK increased, Grade 3 [1]: 0 n (%)
- CPK increased, Grade 4 [1]: 0 n (%)
- Chest discomfort, Grade 1 [1]: 1 (16.7) n (%)
- Chest discomfort, Grade 2 [1]: 0 n (%)
- Chest discomfort, Grade 3 [1]: 0 n (%)
- Chest discomfort, Grade 4 [1]: 0 n (%)
- Chest pain, Grade 1 [1]: 1 (16.7) n (%)
- Chest pain, Grade 2 [1]: 0 n (%)
- Chest pain, Grade 3 [1]: 0 n (%)
- Chest pain, Grade 4 [1]: 0 n (%)
- Cholesterol increased, Grade 1 [1]: 0 n (%)
- Cholesterol increased, Grade 2 [1]: 1 (16.7) n (%)
- Cholesterol increased, Grade 3 [1]: 0 n (%)
- Cholesterol increased, Grade 4 [1]: 0 n (%)
- Constipation, Grade 1 [1]: 2 (33.3) n (%)
- Constipation, Grade 2 [1]: 0 n (%)
- Constipation, Grade 3 [1]: 0 n (%)
- Constipation, Grade 4 [1]: 0 n (%)
- Creatinine increased, Grade 1 [1]: 1 (16.7) n (%)
- Creatinine increased, Grade 2 [1]: 0 n (%)
- Creatinine increased, Grade 3 [1]: 0 n (%)
- Creatinine increased, Grade 4 [1]: 0 n (%)
- Decreased appetite, Grade 1 [1]: 3 (50.0) n (%)
- Decreased appetite, Grade 2 [1]: 1 (16.7) n (%)
- Decreased appetite, Grade 3 [1]: 0 n (%)
- Decreased appetite, Grade 4 [1]: 0 n (%)
- Diarrhea, Grade 1 [1]: 3 (50.0) n (%)
- Diarrhea, Grade 2 [1]: 2 (33.3) n (%)
- Diarrhea, Grade 3 [1]: 0 n (%)
- Diarrhea, Grade 4 [1]: 0 n (%)
- Dizziness, Grade 1 [1]: 1 (16.7) n (%)
- Dizziness, Grade 2 [1]: 0 n (%)
- Dizziness, Grade 3 [1]: 0 n (%)
- Dizziness, Grade 4 [1]: 0 n (%)
- Dysgeusia, Grade 1 [1]: 0 n (%)
- Dysgeusia, Grade 2 [1]: 1 (16.7) n (%)
- Dysgeusia, Grade 3 [1]: 0 n (%)
- Dysgeusia, Grade 4 [1]: 0 n (%)
- Dyshidrotic eczema, Grade 1 [1]: 0 n (%)
- Dyshidrotic eczema, Grade 2 [1]: 1 (16.7) n (%)
- Dyshidrotic eczema, Grade 3 [1]: 0 n (%)
- Dyshidrotic eczema, Grade 4 [1]: 0 n (%)
- Gastrointestinal disorders (SOC), Grade 1 [1]: 4 (66.7) n (%)
- Gastrointestinal disorders (SOC), Grade 2 [1]: 2 (33.3) n (%)
- Gastrointestinal disorders (SOC), Grade 3 [1]: 0 n (%)
- Gastrointestinal disorders (SOC), Grade 4 [1]: 0 n (%)
- General disorders and administration site conditions (SOC), Grade 1 [1]: 5 (83.3) n (%)
- General disorders and administration site conditions (SOC), Grade 2 [1]: 0 n (%)
- General disorders and administration site conditions (SOC), Grade 3 [1]: 0 n (%)
- General disorders and administration site conditions (SOC), Grade 4 [1]: 0 n (%)
- Gingivitis, Grade 1 [1]: 1 (16.7) n (%)
- Gingivitis, Grade 2 [1]: 0 n (%)
- Gingivitis, Grade 3 [1]: 0 n (%)
- Gingivitis, Grade 4 [1]: 0 n (%)
- Headache, Grade 1 [1]: 1 (16.7) n (%)
- Headache, Grade 2 [1]: 0 n (%)
- Headache, Grade 3 [1]: 0 n (%)
- Headache, Grade 4 [1]: 0 n (%)
- Hyperuricemia, Grade 1 [1]: 1 (16.7) n (%)
- Hyperuricemia, Grade 2 [1]: 0 n (%)
- Hyperuricemia, Grade 3 [1]: 0 n (%)
- Hyperuricemia, Grade 4 [1]: 0 n (%)
- Hypocalcemia, Grade 1 [1]: 0 n (%)
- Hypocalcemia, Grade 2 [1]: 1 (16.7) n (%)
- Hypocalcemia, Grade 3 [1]: 0 n (%)
- Hypocalcemia, Grade 4 [1]: 0 n (%)
- Immune system disorders (SOC), Grade 1 [1]: 1 (16.7) n (%)
- Immune system disorders (SOC), Grade 2 [1]: 0 n (%)
- Immune system disorders (SOC), Grade 3 [1]: 0 n (%)
- Immune system disorders (SOC), Grade 4 [1]: 0 n (%)
- Infections and infestations (SOC), Grade 1 [1]: 2 (33.3) n (%)
- Infections and infestations (SOC), Grade 2 [1]: 1 (16.7) n (%)
- Infections and infestations (SOC), Grade 3 [1]: 0 n (%)
- Infections and infestations (SOC), Grade 4 [1]: 0 n (%)
- Investigations (SOC), Grade 1 [1]: 1 (16.7) n (%)
- Investigations (SOC), Grade 2 [1]: 4 (66.7) n (%)
- Investigations (SOC), Grade 3 [1]: 0 n (%)
- Investigations (SOC), Grade 4 [1]: 0 n (%)
- Leukopenia, Grade 1 [1]: 0 n (%)
- Leukopenia, Grade 2 [1]: 2 (33.3) n (%)
- Leukopenia, Grade 3 [1]: 0 n (%)
- Leukopenia, Grade 4 [1]: 0 n (%)
- Lymphopenia, Grade 1 [1]: 0 n (%)
- Lymphopenia, Grade 2 [1]: 1 (16.7) n (%)
- Lymphopenia, Grade 3 [1]: 2 (33.3) n (%)
- Lymphopenia, Grade 4 [1]: 0 n (%)
- Malaise, Grade 1 [1]: 4 (66.7) n (%)
- Malaise, Grade 2 [1]: 0 n (%)
- Malaise, Grade 3 [1]: 0 n (%)
- Malaise, Grade 4 [1]: 0 n (%)
- Metabolism and nutrition disorders (SOC), Grade 1 [1]: 3 (50.0) n (%)
- Metabolism and nutrition disorders (SOC), Grade 2 [1]: 2 (33.3) n (%)
- Metabolism and nutrition disorders (SOC), Grade 3 [1]: 0 n (%)
- Metabolism and nutrition disorders (SOC), Grade 4 [1]: 0 n (%)
- Musculoskeletal and connective tissue disorders (SOC), Grade 1 [1]: 1 (16.7) n (%)
- Musculoskeletal and connective tissue disorders (SOC), Grade 2 [1]: 0 n (%)
- Musculoskeletal and connective tissue disorders (SOC), Grade 3 [1]: 0 n (%)
- Musculoskeletal and connective tissue disorders (SOC), Grade 4 [1]: 0 n (%)
- Musculoskeletal pain, Grade 1 [1]: 1 (16.7) n (%)
- Musculoskeletal pain, Grade 2 [1]: 0 n (%)
- Musculoskeletal pain, Grade 3 [1]: 0 n (%)
- Musculoskeletal pain, Grade 4 [1]: 0 n (%)
- Nasopharyngitis, Grade 1 [1]: 2 (33.3) n (%)
- Nasopharyngitis, Grade 2 [1]: 0 n (%)
- Nasopharyngitis, Grade 3 [1]: 0 n (%)
- Nasopharyngitis, Grade 4 [1]: 0 n (%)
- Nausea, Grade 1 [1]: 3 (50.0) n (%)
- Nausea, Grade 2 [1]: 0 n (%)
- Nausea, Grade 3 [1]: 0 n (%)
- Nausea, Grade 4 [1]: 0 n (%)
- Nervous system disorders (SOC), Grade 1 [1]: 3 (50.0) n (%)
- Nervous system disorders (SOC), Grade 2 [1]: 1 (16.7) n (%)
- Nervous system disorders (SOC), Grade 3 [1]: 0 n (%)
- Nervous system disorders (SOC), Grade 4 [1]: 0 n (%)
- Decreased appetite, frequency (all grades) (TEAE, n = 6): 66.7%
- Diarrhea, frequency (all grades) (TEAE, n = 6): 83.3%
- Leukopenia, frequency (all grades) (TEAE, n = 6): 33.3%
- Lymphopenia, frequency (all grades) (TEAE, n = 6): 50%
- Malaise, frequency (all grades) (TEAE, n = 6): 66.7%
- Nausea, frequency (all grades) (TEAE, n = 6): 50%
- Thrombocytopenia, frequency (all grades) (TEAE, n = 6): 33.3%
- Lymphocyte, erythrocyte, and leukocyte counts (after each treatment, n = 6): gradually decreased
- Abdominal distension, frequency (all grades) (in vivo): 50%
- Alopecia, frequency (all grades) (in vivo): 50%
- Blood creatinine level increased, frequency (in vivo): 16.7%
- Severe infections (in vivo): no severe infections
- Severe lymphopenia during the follow-up period, frequency (in vivo): 16.7%
- Secondary hematological malignant diseases (n = 6): no secondary hematological malignant diseases
- Severe (grade ≥ 3) adverse events associated with non-hematological toxicities (n = 6): no severe (grade ≥ 3) adverse events
